Test results as given in US20220025029A1 (Regeneron, published 2022).

Columns and labels:
[1] = target: T1, natural Fel d1 (Indoor Biotech, #NA-FD1-2) (cat, UniProt P30438 23-92; P30440 18-109); test: SPR (Biacore), mAb captured, natural Fel d1 injected, 25 C;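 note: rate constants obtained by fitting association and dissociation phases to a one-to-one binding model, with Kd and half-life derived from those rate constants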
T1 construct: Bought natural heterodimeric glycoprotein, chains linked by disulfide bonds; also called nFel d1; nFel d 1
T1 sequence (P30438 other isoform, or with tags, fused parts or gaps, chain 1 of 2): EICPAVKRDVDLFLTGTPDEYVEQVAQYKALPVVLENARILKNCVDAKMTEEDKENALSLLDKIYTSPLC
T1 sequence (P30440 18-109, chain 2 of 2): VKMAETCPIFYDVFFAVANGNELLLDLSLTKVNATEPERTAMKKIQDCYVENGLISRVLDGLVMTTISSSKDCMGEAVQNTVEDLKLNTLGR

[2] = target: T1, natural Fel d1 (Indoor Biotech, …); test: Octet BLI, mAb captured on anti-hFc tip, 500 nM nFel d1
[3] = target: T1, natural Fel d1 (Indoor Biotech, …); test: Octet BLI sandwich; nFel d1 pre-complexed with captured mAb-1 H4H2864P (competitor); self-competition value subtracted
[4] = target: T1, natural Fel d1 (Indoor Biotech, …); test: Octet BLI sandwich; nFel d1 pre-complexed with captured mAb-1 H4H2636P (competitor); self-competition value subtracted
[5] = target: T1, natural Fel d1 (Indoor Biotech, …); test: Octet BLI sandwich; nFel d1 pre-complexed with captured mAb-1 H4H1238N (competitor); self-competition value subtracted
[6] = target: T1, natural Fel d1 (Indoor Biotech, …); test: Octet BLI sandwich; nFel d1 pre-complexed with captured mAb-1 H4H2597P (competitor); self-competition value subtracted
[7] = target: T1, natural Fel d1 (Indoor Biotech, …); test: Octet BLI sandwich; nFel d1 pre-complexed with captured mAb-1 H4H1232N (competitor); self-competition value subtracted
[8] = target: T1, natural Fel d1 (Indoor Biotech, …); test: Octet BLI sandwich; nFel d1 pre-complexed with captured mAb-1 H4H2645P (competitor); self-competition value subtracted
[9] = target: T1, natural Fel d1 (Indoor Biotech, …); test: Octet BLI sandwich; nFel d1 pre-complexed with captured mAb-1 H4H1616N (competitor); self-competition value subtracted
[10] = target: T1, natural Fel d1 (Indoor Biotech, …); test: Octet BLI sandwich; captured mAb-1 H4H1300N, which did not pre-complex with nFel d1; self-competition value subtracted
[11] = target: T1, natural Fel d1 (Indoor Biotech, …); test: SPR (Biacore 2000), mAb captured via anti-human Fc, nFel d 1 injected, 25 C

Kd [1] [nM] | koff [1] [s⁻¹] | kon [1] [M⁻¹ s⁻¹] | t1/2 [1] [min] | Amount of 500 nM nFel d1 Bound [2] [nm] | Response of mAb-2 Binding to nFel d1 pre-complexed with mAb-1 [3] [nm] | Response of mAb-2 Binding to nFel d1 pre-complexed with mAb-1 [4] [nm] | Response of mAb-2 Binding to nFel d1 pre-complexed with mAb-1 [5] [nm] | Response of mAb-2 Binding to nFel d1 pre-complexed with mAb-1 [6] [nm] | Response of mAb-2 Binding to nFel d1 pre-complexed with mAb-1 [7] [nm] | Response of mAb-2 Binding to nFel d1 pre-complexed with mAb-1 [8] [nm] | Response of mAb-2 Binding to nFel d1 pre-complexed with mAb-1 [9] [nm] | Response of mAb-2 Binding to nFel d1 pre-complexed with mAb-1 [10] [nm] | 600 nM nFel d 1 Bound (RU) [11] [RU] | Kd [11] [nM] | koff [11] [s⁻¹] | kon [11] [M⁻¹ s⁻¹] | t1/2 [11] [min] | Binder
0.307 | 0.00091 | 2.97e+06 | 13 | – | – | – | – | – | – | – | – | – | – | – | – | – | – | H4H2607B (antibody, human IgG4, V domains shown, human IgG4 Fc (H4H prefix)) VH: EVQLVESGGGLVKPGGSLRLSCAASGFTFSDYYMNWIRQAPGKGLEWISYLSSSGSATYYADSVKGRFTISRDNAKNSLYLQMNSLRAEDTAVYYCARDGKYNTVAGDYWGQGTTVTVSS VL: DIQLTQSPSSLSASVGDRVTITCRASQGIRNDLGWYQQKPGKAPKRLIYAASSLQSGVPSRFSGSGSGTEFTLTISSLQPEDFATYYCLQHNSYPYTFGQGTKVEIKR
5.14 | 0.00124 | 241000 | 9 | 0.09 | 0.01 | 0.01 | 0.43 | 0.4 | 0.54 | 0.01 | 0 | 0.06 | – | – | – | – | – | H4H1616N (antibody, human IgG4, V domains shown, human IgG4 Fc (H4H prefix)) VH: EVELLESGGGLVQPGGSLRLSCAASGFTFSSYAMSWVRQAPGKGLEWVSSISGRVGSTHFADSVKGRFTFSRDNSKNTLYLQLSSLRAEDTAVYYCARSRGAAYFDYWGQGTLVTVSS VL: DIQMTQSPSSLSASVGDRVTITCQANQDISNFLNWYQQRPGKAPNLLIYAASNLETGVPSRFSGSGSGTDFTFTISSLQPEDIATYYCQHYDNFPFTFGPGTKVDIK
0.459 | 0.000261 | 569000 | 44 | 0.1 | -0.01 | 0 | 0.62 | 0.55 | 0.75 | 0 | -0.01 | 0.05 | – | – | – | – | – | H4H2645P (antibody, human IgG4, V domains shown, human IgG4 Fc (H4H prefix)) VH: EVQLVESGGGLVQPGGSLRLSCAASGFTFSTYAMHWVRQAPGKGLEWVSSISGRGRNSDHADSVKGRFTISRDNSKNTLYLQMNSLRAEDTAVYYCARTEYFHHWGQGTLVTVSS VL: DIQMTQSPSSLSASVGDRITITCRASQDINNYLAWFQQKPGKAPKSLIYGASSLQSGVPSKFSGSGSGTDFTLTISSLQPEDFATYYCQQYSSYPFTFGPGTKVDIK
35.4 | 0.00713 | 202000 | 2 | – | – | – | – | – | – | – | – | – | – | – | – | – | – | H4H2797P (antibody, human IgG4, V domains shown, human IgG4 Fc (H4H prefix)) VH: QVQLVESGGGVVLPGRSLRLSCAASGFTFSSYLMYWVRQAPGKGLEWVAVIWYDGSNKFYGDSVKGRFTISRDNSKNTLYLQMNSLRAEDTAVYYCARDNGNSGYEDSWNAFDIWGQGTMVTVSS VL: DIQMTQSPSSLSASVGDRVTITCRASQDIYNYLAWFQQKPGKAPKSLIYAASSLQTGVPSQFSGSGSGTDFTLTISSLQPEDFATYYCQQYNNYPFTFGPGTKVDIK
0.801 | 0.00135 | 1.68e+06 | 9 | 0.08 | 0 | 0 | 0.62 | 0.54 | 0.71 | -0.01 | -0.01 | 0.06 | – | – | – | – | – | H4H2864P (antibody, human IgG4, V domains shown, human IgG4 Fc (H4H prefix)) VH: EVQLVESGGGLAQPGGSLRLSCAASGFTFNNYAMTWVRQAPGKGLDWVSAISDSGRSTFSADSVKGRFTISRDNSKNTLYLQMDSLRAEDTALYYCAKHRNWNYPVFDYWGQGTLVTVSS VL: DIQLTQSPSFLSASVGDRVTITCWASQGISSYLAWYQQKPGKAPKLLIYSASTLQSGVPSRFSGSGSGTEFTLTISSLQPEDFATYYCQQLNSYPFTFGPGTKVDIK
0.207 | 0.000331 | 1.6e+06 | 35 | 0.08 | 0.3 | 0.29 | 0.76 | -0.03 | 0 | – | 0.18 | 0.02 | 42 | 0.155 | 0.000472 | 3.05e+06 | 24 | H4H1232N (antibody, human IgG4, V domains shown, human IgG4 Fc (H4H prefix)) VH: EVQLVESGGGLVKPGGSLRLSCAASGFTFRNYNINWVRQAPGKGLEWVSLISGSSSYIYYADSVKGRFTVSRDNAKNSLYLQMNSLRAEDTAVYYCARRTLSYYVMDVWGQGTTVTVSS VL: DIQVTQSPSPLSASVGDRVTITCRASQGISNYLAWYQQKPGRVPQLLIYAASTLQSGVPSRFSGSGSGTDFTLTISSLQPEDVATYYCQKYNSAPYTFGQGTKLEIK
– | – | – | – | – | – | – | – | – | – | – | – | – | 30 | 0.347 | 0.00062 | 1.79e+06 | 19 | H4H8751D (bispecific antibody, V domains shown, Bi-specific with a common kappa light chain on both Fab arms; human IgG4 Fc by the H4H prefix) VH 1: EVQLVESGGGLVQPGGSLRLSCAASGFTFSSYAMSWVRQAPGKGLEWVSAISGRGYNADYADSVKGRFTISRDNSKNTLYLQMNSLRAEDTAVYYCAKLEYFDYWGQGTLVTVSS VH 2: EVQLVESGGGLVKPGGSLRLSCAASGFTFRNYNINWVRQAPGKGLEWVSLISGSSSYIYYADSVKGRFTVSRDNAKNSLYLQMNSLRAEDTAVYYCARRTLSYYVMDVWGQGTTVTVSS VL: DIQMTQSPSTLSASVGDRVTITCRASQSISSWLAWYQQKPGKAPKLLIYKASSLESGVPSRFSGSGSGTDFTLTISSLRPEDFATYYCQQYNSYPLTFGGGTKVEIK
– | – | – | – | – | – | – | – | – | – | – | – | – | 35 | 0.25 | 0.000712 | 2.85e+06 | 16 | H4H3467D (bispecific antibody, V domains shown, Bi-specific with a common kappa light chain on both Fab arms; human IgG4 Fc by the H4H prefix) VH 1: EVQLVESGGGLAQPGGSLRLSCAASGFTFNNYAMTWVRQAPGKGLDWVSAISDSGRSTFSADSVKGRFTISRDNSKNTLYLQMDSLRAEDTALYYCAKHRNWNYPVFDYWGQGTLVTVSS VH 2: EVQLVESGGGLVKPGGSLRLSCAASGFTFRNYNINWVRQAPGKGLEWVSLISGSSSYIYYADSVKGRFTVSRDNAKNSLYLQMNSLRAEDTAVYYCARRTLSYYVMDVWGQGTTVTVSS VL: DIQLTQSPSFLSASVGDRVTITCWASQGISSYLAWYQQKPGKAPKLLIYSASTLQSGVPSRFSGSGSGTEFTLTISSLQPEDFATYYCQQLNSYPFTFGPGTKVDIK
0.65 | 0.0015 | 2.31e+06 | 8 | – | – | – | – | – | – | – | – | – | – | – | – | – | – | H4H2597B (antibody, human IgG4, V domains shown, human IgG4 Fc (H4H prefix)) VH: EVQLVESGGGLVQPGGSLRLSCAVSGFTFSNYAMNWVRQAPGKGLEWVSVISDSGRSTYYADSVKGRFTISRDNSKNTLYLQMNSLRAEDTAVYFCAKRYNWNLHYFDYWGQGTTVTVSS VL: EIVLTQSPDFQSVTPKEKVTITCRASQSIGGSLHWYQQKPDQSPKLLIKYASQSFSGVPSRFSGSGSGTDFTLTINSLEAEDAATYYCLQSSSLRTFGQGTKVEIKR
0.765 | 0.000707 | 924000 | 16 | – | – | – | – | – | – | – | – | – | – | – | – | – | – | H4H2606B (antibody, human IgG4, V domains shown, human IgG4 Fc (H4H prefix)) VH: EVQLVESGGGLVKPGGSLRLSCAASGFTFSDYYMNWIRQAPGKGLEWVSYISSSGNSIYYADSVKGRFTISRDNAKNSLFLQMSSLRAEDTAVYYCARDGRYNDRRRGYYWGQGTLVTVSS VL: EIVMTQSPDFQSVTPKEKVTITCRASQSIGSSLHWYQQKPDQSPKLLIKYASQSFSGVPSRFSGSGSGTDFTLTINSLEAEDAATYYCLQSSSLRTFGQGTKVEIKR
